In paper PMC8621594, “Physicochemical and Biological Characterization of rhC1INH Expressed in CHO Cells” (Pharmaceuticals, 2021):

What was measured:
human C1s = human C1s (human); experiment: cell-based or functional assay
[1] = target: T1, blood coagulation factor XIIa (human, UniProt P00748 20-615); experiment: cell-based or functional assay
T1 sequence (looked up): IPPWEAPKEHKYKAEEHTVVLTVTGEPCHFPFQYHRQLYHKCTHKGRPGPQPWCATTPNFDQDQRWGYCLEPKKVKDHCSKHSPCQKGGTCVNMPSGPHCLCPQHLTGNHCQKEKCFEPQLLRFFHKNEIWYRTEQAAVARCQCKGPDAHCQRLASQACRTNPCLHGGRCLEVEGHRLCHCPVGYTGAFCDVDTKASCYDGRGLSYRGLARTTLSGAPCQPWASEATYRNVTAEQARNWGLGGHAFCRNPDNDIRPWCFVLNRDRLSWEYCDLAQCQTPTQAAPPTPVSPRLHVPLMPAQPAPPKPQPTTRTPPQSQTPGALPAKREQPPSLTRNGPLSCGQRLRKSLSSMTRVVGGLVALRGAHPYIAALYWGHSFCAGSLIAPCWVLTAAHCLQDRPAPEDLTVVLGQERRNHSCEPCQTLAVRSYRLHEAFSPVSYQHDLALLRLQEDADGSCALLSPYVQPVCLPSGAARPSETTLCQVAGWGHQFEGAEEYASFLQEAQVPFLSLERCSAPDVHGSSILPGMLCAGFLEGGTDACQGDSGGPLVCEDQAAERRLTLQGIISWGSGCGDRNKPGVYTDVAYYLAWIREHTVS

[2] = target: T1, blood coagulation factor XIIa; experiment: BLI; Octet QKe; each protease diluted to 10 ug/mL in 10 mM sodium acetate pH 6.0 and covalently immobilised on amino reactive sensors (AR2G); C1 inhibitor at 11, 5.5 and 2.8 uM in triplicates; 24 °C, 250 rpm; only the association rate constant calculated because complex formation is irreversible; conditions: both partners purified

B1: Ruconest^® (conestat alfa), human recombinant C1 inhibitor purified from the milk of transgenic rabbits (natural protein, UniProt P05155 23-500, looked up)
chain: NPNATSSSSQDPESLQDRGEGKVATTVISKMLFVEPILEVSSLPTTNSTTNSATKITANTTDEPTTQPTTEPTTQPTIQPTQPTTQLPTDSPTQPTTGSFCPGPVTLCSDLESHSTEAVLGDALVDFSLKLYHAFSAMKKVETNMAFSPFSIASLLTQVLLGAGENTKTNLESILSYPKDFTCVHQALKGFTTKGVTSVSQIFHSPDLAIRDTFVNASRTLYSSSPRVLSNNSDANLELINTWVAKNTNNKISRLLDSLPSDTRLVLLNAIYLSAKWKTTFDPKKTRMEPFHFKNSVIKVPMMNSKKYPVAHFIDQTLKAKVGQLQLSHNLSLVILVPQNLKHRLEDMEQALSPSVFKAIMEKLEMSKFQPTLLTLPRIKVTTSQDMLSIMEKLEFFDFSYDLNLCGLTEDPDLQVSAMQHQTVLELTETGVEAAAASAISVARTLLVFEVQQPFLFVLWDQQHKFPVFMGRVYDPRA
modifications: glycosylated; 8.0 ± 0.6 mol Neu5Ac/mol protein
**Q.** Which “IC50 of the inhibition of human serum complement (lysis of chicken erythrocytes), Ruconest® 0.0076 to 15.6 IU/mL; printed as activity against human C1-esterase in the blood serum” value (human C1s) does the source give for B1 here?
**A.** 1.66 IU/mL

B2: recombinant human C1 esterase inhibitor (rhC1INH) from Chinese hamster ovary (CHO) cells (natural protein, UniProt P05155 23-500, looked up)
chain: NPNATSSSSQDPESLQDRGEGKVATTVISKMLFVEPILEVSSLPTTNSTTNSATKITANTTDEPTTQPTTEPTTQPTIQPTQPTTQLPTDSPTQPTTGSFCPGPVTLCSDLESHSTEAVLGDALVDFSLKLYHAFSAMKKVETNMAFSPFSIASLLTQVLLGAGENTKTNLESILSYPKDFTCVHQALKGFTTKGVTSVSQIFHSPDLAIRDTFVNASRTLYSSSPRVLSNNSDANLELINTWVAKNTNNKISRLLDSLPSDTRLVLLNAIYLSAKWKTTFDPKKTRMEPFHFKNSVIKVPMMNSKKYPVAHFIDQTLKAKVGQLQLSHNLSLVILVPQNLKHRLEDMEQALSPSVFKAIMEKLEMSKFQPTLLTLPRIKVTTSQDMLSIMEKLEFFDFSYDLNLCGLTEDPDLQVSAMQHQTVLELTETGVEAAAASAISVARTLLVFEVQQPFLFVLWDQQHKFPVFMGRVYDPRA
modifications: heavily glycosylated: six occupied N- and more than 12 O- sites of glycosylation; about 20 mol Neu5Ac/mol protein
notes: mass of the totally deglycosylated protein 52,846 Da (theoretical 52,849 Da); By LC-MS 71% of the deglycosylated product is the full structure; source: genetically engineered CHO cells, purified
**Q.** Which results are given for B2?
**A.** inhibitory activity toward factor XIIa, chromogenic substrate S-2302, inhibitor 18 to 0.14 µM, relative to Berinert® (100%) [1]: 115%; kon [2]: 3260 M⁻¹ s⁻¹
